Laboratory results from patent US12653899B2, “Multi-targeted, tunable, sustained delivery of payloads to charged avascular tissues” (Massachusetts Institute of Technology, priority 2019, dated 2026).

Columns and labels:
[1] = tested on: human ankle cartilage explants; test: Quantitative uptake of fusion proteins in human ankle cartilage (uptake ratio); assay type: in vitro ADME; details: 1 μM in PBS + 1% BSA
Protocol: Cartilage explants were incubated in 250 μL of 1 μM solutions of different fusion proteins dissolved in 1×PBS+1% BSA for either 36 hours (FIG. 4A) or for 108 hours (FIG. 4B) (4.5 days). A group with free +9 GFP dissolved in 1×PBS+1% BSA (1 μM concentration) was included as a control for each of these two time points. An additional untreated control was included in these experiments. Cartilage explants were incubated in plain 1×PBS+1% BSA to account for and to correct for any autofluorescence effects. At the end of the incubation in the 1×PBS+1% BSA: The explants were transferred to a 10×PBS+1% BSA bath for 48 hours. The purpose of this was to desorb the GFPs taken up by the explants. The amount of GFPs left behind in the […] bath was quantified through fluorescence measurements. The desorption step in 10×PBS+1% BSA was followed by a second desorption step using fresh 10×PBS+1% BSA just to ensure any GFPs left in the explant after the 1st desorption come out. At the end of each desorption step, the fluorescence of the 10×PBS+1% BSA bath was measured. After the 2nd desorption step, the explants were digested in Proteinase K and their fluorescence was measured. The uptake ratio for the 36 hour and 108 hour experiments was calculated as (FIG. 4C): […]
Cartilage explants that had been equilibrated in culture medium post-harvest were transferred to sterile PBS and allowed to equilibrate for 1 hour before the start of the experiments. Sterile PBS solutions containing 1% bovine serum albumin (BSA) were prepared. Following this, 1 μM solutions of (+9GFP), (+9GFP)-(GGGGS)4-(IGF-1) (SEQ ID NO: 7), (+9GFP)-(EAAAK)3-(IGF-1) (SEQ ID NO: 8) and (+9GFP)-(GGGGS)3-(IGF-1) (SEQ ID NO: 9) were prepared. The BSA was included in the PBS to minimize loss of GFPs in the solution caused by non-specific binding to the plasticware. […] In contrast, use of polypropylene with 1% BSA enabled complete recovery of fluorescence.
At the end of the incubation period, cartilage explants were washed with PBS and transferred to a solution of 10×PBS+1% BSA for desorption. At the same time, the fluorescence of the absorption bath was measured using a plate reader (Synergy H1, Biotek Instruments Inc.) (excitation: 485 nm, emission: 528 nm). […] At the end of the desorption in 10×PBS+1% BSA, cartilage explants were weighed, and the fluorescence of the desorption bath was measured. This fluorescence measurement was used with a standard curve and the explant wet weights to calculate the concentration of GFP inside cartilage explants (mol/mg wet weight). The uptake ratio was calculated as the ratio of GFP concentration inside cartilage (mol/mg wet weight) to the final absorption bath concentration (mol/mL).

[2] = tested on: human ankle cartilage explants treated with IL-1β; test: Cumulative sGAG loss and final sGAG content (DMMB) in IL-1β challenge, human ankle cartilage; assay type: cell-based; details: 100 pg/ml IL-1β alone; 10-day time point
Protocol: (§1) Preliminary dose response experiments were performed to test the effects of human IL-1β (PeproTech, Rocky Hill, NJ) on human ankle cartilage. Ankle cartilage explants from two different donors (equilibrated in culture medium post-harvest) were cultured in serum-free low glucose medium (same composition as equilibration medium) and treated with continuous IL-1β doses ranging from 10 pg/ml to 1 ng/ml for 8 days. The experiments also included groups of explants that were treated with 300 ng/ml free IGF-1 at each dose level of IL-1β. Based on the results of these experiments, 100 pg/ml IL-1β was chosen as the dose used for the fusion protein dose response experiments. In these experiments, ankle and knee cartilage explants (equilibrated in culture medium post-harvest) were treated continuously with IL-1β and received single doses of fusion proteins (ranging from 39.2 nM to 2 μM) at the start of the experiments. Media changes with IL-1β but without fusion proteins were performed once every 2 to 3 days. An untreated control group, a control with continuous IL-1β alone, and a control with IL-1β combined with continuous free IGF-1 (300 ng/ml or 39.2 nM) were included. Experiments were terminated at 7-day and 10-day timepoints, and the sGAG biosynthesis rate, metabolic rate, sGAG loss to culture medium and sGAG content of the explants were measured.
The metabolic rate of cartilage explants was measured using the Alamar Blue assay (ThermoFisher). Cartilage explants were incubated for 3 hours in a 1× solution of Alamar Blue dissolved in culture medium. At the end of the incubation period, the absorbance of the medium at 570 nm and 600 nm was measured using a microplate reader (Synergy H1 Hybrid Multi-Mode Microplate Reader, BioTek). These readings were used to calculate the percentage reduction of Alamar Blue, which is directly proportional to the explant metabolic rate. These values were first normalized by individual explant weights. Following this, the weight-normalized readings for the treatment groups were normalized by the weight-normalized mean value for the untreated controls. To measure the chondrocyte biosynthesis rate of sulfated glycosaminoglycans (sGAGs), cartilage explants were cultured in the presence of 10 μCi/mL 35S-sulfate radiolabel during the final two days of each experiment. […] To calculate the cumulative loss of GAGs from the explants, the amount of sGAG lost to the medium and that left behind in the explants at the end of the experiment were measured using the dimethylene blue (DMMB) dye binding assay (Farndale et al., Biochim Biophys Acta. 883(2):173-177 (1986)).

[3] = tested on: human ankle cartilage explants treated with IL-1β; test: IL-1β cytokine challenge model, sGAG biosynthesis rate in human ankle cartilage explants; assay type: cell-based; details: 100 pg/ml (Experiment 5A also 500 pg/ml and 1000 pg/ml) human IL-1β alone; days 6-8
Protocol: Cartilage was harvested from the ankles of a donor (Collins Grade 1) and a donor (Collins Grade 1). Cartilage explants were equilibrated in culture media for 2 days after harvest. […] These were cut down to 1 mm thickness and allowed to equilibrate for a further 2 days before experiments were set up. Human IL-1β was used to induce osteoarthritis-like changes in cartilage. Experiments were set up to identify IL-1β doses at which 40 nM of free IGF-1 can rescue the IL-1β induced biosynthesis loss in cartilage. A dose response experiment in which single doses of (+9GFP)-(GGGGS)4-(IGF-1) (SEQ ID NO: 7) and (+9GFP)-(EAAAK)3-(IGF-1) (SEQ ID NO: 8) were added along with 100 pg/ml human IL-1β was also set up.
Experimental groups (N=8 to 10 cartilage explants in each group): Untreated control (Ctrl in FIG. 6A and FIG. 6B), 10 pg/mL human IL-1β (10 pg/ml IL-1b in FIG. 6A and FIG. 6B), 10 pg/mL human IL-1β+40 nM IGF-1 (10 pg/ml IL-1b+40 nM IGF-1 in FIG. 6A and FIG. 6B), 100 pg/mL human IL-1β (100 pg/ml IL-1b in FIG. 6A and FIG. 6B), 100 pg/mL human IL-1β+40 nM IGF-1 (100 pg/ml IL-1b+40 nM IGF-1 in FIG. 6A and FIG. 6B), 500 pg/mL human IL-1β (500 pg/ml IL-1b in FIG. 6A and […]), 500 pg/mL human IL-1β+40 nM IGF-1 (500 pg/ml IL-1b+40 nM IGF-1 in FIG. 6A and FIG. 6B), 1000 pg/mL human IL-1β (1 ng/ml IL-1b in FIG. 6A and FIG. 6B), 1000 pg/mL human IL-1β+40 nM IGF-1 (1 ng/ml IL-1b+40 nM IGF-1 in FIG. 6A and FIG. 6B). Media changes were performed every 2 days and the experiment was terminated after 8 days.
Chondrocyte biosynthesis rate (primarily aggrecan synthesis) was measured between days 6 and 8 of the experiment using a 35S-sulfate radiolabel. Statistics: 1-way ANOVA with post-hoc Tukey's HSD test.
This experiment was set up with cartilage explants from the donor ankle. Experimental groups (N=8 to 10 cartilage explants in each group): Untreated control (Ctrl in FIG. 6C), Continuous human IL-1β control (100 pg/ml dose added with every media change) (IL-1b in FIG. 6C), Continuous human IL-1β+continuous free IGF-1 control (100 pg/ml human IL-1β and 40 nM free IGF-1 dose added with every media change) (IL-1b+IGF1 FIG. 6C), Continuous human IL-1β+(+9GFP)-(GGGGS)4-(IGF-1) (SEQ ID NO: 7) 500 nM single dose (100 pg/ml human IL-1β added with every media change; Single 500 nM fusion protein dose added on Day 0) (IL-1b+0.5 μM Flex-1 in FIG. 6C), Continuous human IL-1β+(+9GFP)-(GGGGS)4-(IGF-1) (SEQ ID NO: 7) 1 μM single dose (100 pg/ml human IL-1β added with every media change; Single 1 μM fusion protein dose added on Day 0) (IL-1b+1 μM Flex-1 in FIG. 6C), Continuous human IL-1β+(+9GFP)-(EAAAK)3-(IGF-1) (SEQ ID NO: 8) 500 nM single dose (100 pg/ml human IL-1β added with every media change; Single 500 nM fusion protein dose added on Day 0), Continuous human IL-1β+(+9GFP)-(EAAAK)3-(IGF-1) (SEQ ID NO: 8) 1 μM single dose (100 pg/ml human IL-1β added with every media change; Single 1 μM fusion protein dose added on Day 0) (IL-1b+1 μM Rig-1 in FIG. 6C).
as §1, with “Media changes with IL-1β but without fusion proteins were performed once every 2 to 3 days. An untreated control group, a control with continuous IL-1β alone, and a control with IL-1β combined with continuous free IGF-1 (300 ng/ml or 39.2 nM) were included. Experiments were terminated at 7-day and 10-day timepoints, and the sGAG biosynthesis rate, metabolic rate, sGAG loss to culture medium and sGAG content of the explants were measured.” left out

Row | Substance | Uptake ratio (Mean) ([1]; 36 hr) | Uptake ratio (Mean) ([1]; 108 hr) | cumulative sGAG loss compared to the untreated control [2] | aggrecan biosynthesis compared to the untreated control [3]
1 | (+9GFP)-(GGGGS)3-(IGF-1): fusion protein of +9 GFP and human IGF-1 with flexible (GGGGS)3 linker, SEQ ID NO: 9 | 13.1 | 24.2 |  | 
2 | IL-1β: human IL-1β (PeproTech), cytokine used to induce osteoarthritis-like biosynthesis loss in cartilage explants [reference compound] |  |  | higher cumulative sGAG loss | significant reduction
